# Article PMC9872604, “Targeting Multidrug-Recalcitrant Pseudomonas aeruginosa Biofilms: Combined-Enzyme Treatment Enhances Antibiotic Efficacy” (Antimicrobial Agents and Chemotherapy, 2023)
# B1: AidH (Ochrobactrum sp. T63) (protein)
# chain: MTINYHELETSHGRIAVRESEGEGAPLLMIHGNSSSGAIFAPQLEGEIGKKWRVIAPDLPGHGKSTDAIDPDRSYSMEGYADAMTEVMQQLGIADAVVFGWSLGGHIGIEMIARYPEMRGLMITGTPPVAREEVGQGFKSGPDMALAGQEIFSERDVESYARSTCGEPFEASLLDIVARTDGRARRIMFEKFGSGTGGNQRDIVAEAQLPIAVVNGRDEPFVELDFVSKVKFGNLWEGKTHVIDNAGHAPFREAPAEFDAYLARFIRDCTQ
# notes: full aidH gene in pET28a(+) (BamHI/HindIII), His-tagged, expressed in E. coli BL21(DE3), Ni-NTA and size exclusion purified
# How the values were obtained:
# purified protein [1] = substrate: CCCC(=O)N[C@H]1CCOC1=O; experiment: purified protein; format: biochemical, Ochrobactrum sp. T63; details: 50 mM sodium phosphate pH 6.8, 37 °C, 10 min, 5% methanol substrate
# purified protein [2] = substrate: CCCCCCCCCC(=O)CC(=O)N[C@H]1CCOC1=O; experiment: purified protein; format: biochemical, Ochrobactrum sp. T63; details: 50 mM sodium phosphate pH 6.8, 37 °C, 10 min, 5% methanol substrate
protein,measurement,setting,value
B1,Km,purified protein [1],250 ± 30 µM
same,kcat,purified protein [1],39.8 ± 1.3 s⁻¹
same,Km,purified protein [2],240 ± 30 µM
same,kcat,purified protein [2],29.4 ± 1.7 s⁻¹
